{
  "source": "patent US12312641B2",
  "about": "“Sensitivity marker for antibody-drug conjugate” (priority 2018, dated 2025)",
  "molecules": {"B1": {"name": "antibody-drug conjugate (1): humanized anti-hTROP2 antibody (SEQ ID NO: 1 residues 20-470, SEQ ID NO: 2 residues 21-234) conjugated to the exatecan-derivative drug-linker via a thioether bond (conjugate, chains of the INN, looked up)", "VH": "QVQLVQSGAEVKKPGASVKVSCKASGYTFTTAGMQWVRQAPGQGLEWMGWINTHSGVPKYAEDFKGRVTISADTSTSTAYLQLSSLKSEDTAVYYCARSGFGSSYWYFDVWGQGTLVTVSS", "VL": "DIQMTQSPSSLSASVGDRVTITCKASQDVSTAVAWYQQKPGKAPKLLIYSASYRYTGVPSRFSGSGSGTDFTLTISSLQPEDFAVYYCQQHYITPLTFGQGTKLEIK", "modifications": "exatecan-derivative drug-linker"}},
  "tested_on": "patient-derived xenograft (PDX) model",
  "assay": "Anti-tumor effect (TGI) in patient-derived xenograft models, 10 to 15 days after administration",
  "format": "in vivo, nu/nu mice",
  "settings": "for TGI (%): 10 mg/kg tail vein; for Proportion of PDX models showing TGI of 75% or more: TGI at 10 to 15 days",
  "protocol": "Mice: Female nu/nu mice (Envigo) aged 5-8 weeks were acclimatized under SPF conditions for 3 days or more prior to experimental use. Mice were fed with sterile solid feed (Teklad2919, Envigo) and given reverse osmosis membrane-treated water (containing 2 ppm chlorine).\nMeasurements and Calculation formula: long and short diameters of tumors were measured twice a week with an electronic digital caliper (CD-6PMX, Mitutoyo Corp.) and tumor volume (mm^3) was calculated using the following calculation formula: Tumor volume (mm^3)=0.52×Long diameter (mm)×[Short diameter (mm)]^2\nTumor fragments from each cancer patient were subcutaneously implanted into mice and passaged. The obtained tumors were used to subcutaneously implant tumor fragments, which were cut to approximately 5×5×5 mm^3, into the left abdomen of female nu/nu mice, thereby each patient-derived xenograft (PDX) model was created. Mice were randomly grouped when the mean transplanted tumor volume reached 150 to 300 mm^3 (Day 0). On the same day as grouping, the antibody-drug conjugate (1) was administered into the tail vein at a dose of 10 mg/kg. A formulation buffer was similarly administered at a volume of 10 mL/kg as a negative control.\nData on the amount of gene expression in each PDX model used in Example 4 were obtained by the next-generation RNA sequencing method using RNA extracted from formalin-fixed paraffin-embedded specimens of each tumor. After the obtained data were normalized to a FPKM value, 1 was added to FPKM, and the sum was transformed to a logarithmic (log2) to obtain a log2[FPKM+1] value (Table 6). The log2[FPKM+1] value was used to analyze the relationship between the anti-tumor activity of antibody-drug conjugate (1) in each PDX model (Table 5) and the amount of expression of the hTROP2 gene and the SLFN11 gene.",
  "data": [
    {"molecule": "B1", "values": [
      {"measurement": "TGI (%)", "setting": "PDX model #1, Breast, Day 14", "value": 95.2, "unit": "%"},
      {"measurement": "TGI (%)", "setting": "PDX model #2, Lung, Day 14", "value": 68.3, "unit": "%"},
      {"measurement": "TGI (%)", "setting": "PDX model #3, Cholangiocarcinoma, Day 14", "value": 22.2, "unit": "%"},
      {"measurement": "TGI (%)", "setting": "PDX model #4, Pancreatic, Day 14", "value": 21.8, "unit": "%"},
      {"measurement": "TGI (%)", "setting": "PDX model #5, Colorectal, Day 14", "value": 41.7, "unit": "%"},
      {"measurement": "TGI (%)", "setting": "PDX model #6, Breast, Day 14", "value": 92.4, "unit": "%"},
      {"measurement": "TGI (%)", "setting": "PDX model #7, Breast, Day 15", "value": 87.6, "unit": "%"},
      {"measurement": "TGI (%)", "setting": "PDX model #8, Head & neck, Day 14", "value": 57.9, "unit": "%"},
      {"measurement": "TGI (%)", "setting": "PDX model #9, Head & neck, Day 14", "value": 94.0, "unit": "%"},
      {"measurement": "TGI (%)", "setting": "PDX model #10, Lung, Day 14", "value": 97.3, "unit": "%"},
      {"measurement": "TGI (%)", "setting": "PDX model #11, Lung, Day 14", "value": 87.4, "unit": "%"},
      {"measurement": "TGI (%)", "setting": "PDX model #12, Breast, Day 15", "value": 90.0, "unit": "%"},
      {"measurement": "TGI (%)", "setting": "PDX model #13, Lung, Day 14", "value": 62.3, "unit": "%"},
      {"measurement": "TGI (%)", "setting": "PDX model #14, Breast, Day 14", "value": 82.7, "unit": "%"},
      {"measurement": "TGI (%)", "setting": "PDX model #15, Cholangiocarcinoma, Day 14", "value": 46.4, "unit": "%"},
      {"measurement": "TGI (%)", "setting": "PDX model #16, Colorectal, Day 14", "value": 26.0, "unit": "%"},
      {"measurement": "TGI (%)", "setting": "PDX model #17, Breast, Day 14", "value": 56.5, "unit": "%"},
      {"measurement": "TGI (%)", "setting": "PDX model #18, Lung, Day 14", "value": 14.6, "unit": "%"},
      {"measurement": "TGI (%)", "setting": "PDX model #19, Lung, Day 14", "value": 28.1, "unit": "%"},
      {"measurement": "TGI (%)", "setting": "PDX model #20, Lung, Day 14", "value": 82.0, "unit": "%"},
      {"measurement": "TGI (%)", "setting": "PDX model #21, Lung, Day 14", "value": 76.6, "unit": "%"},
      {"measurement": "TGI (%)", "setting": "PDX model #22, Lung, Day 14", "value": 87.9, "unit": "%"},
      {"measurement": "TGI (%)", "setting": "PDX model #23, Lung, Day 14", "value": 4.7, "unit": "%"},
      {"measurement": "TGI (%)", "setting": "PDX model #24, Lung, Day 14", "value": 19.1, "unit": "%"},
      {"measurement": "TGI (%)", "setting": "PDX model #25, Pancreatic, Day 14", "value": 37.9, "unit": "%"},
      {"measurement": "TGI (%)", "setting": "PDX model #26, Pancreatic, Day 13", "value": 62.3, "unit": "%"},
      {"measurement": "TGI (%)", "setting": "PDX model #27, Lung, Day 13", "value": 48.5, "unit": "%"},
      {"measurement": "TGI (%)", "setting": "PDX model #28, Breast, Day 14", "value": 92.6, "unit": "%"},
      {"measurement": "TGI (%)", "setting": "PDX model #29, Breast, Day 14", "value": 97.4, "unit": "%"},
      {"measurement": "TGI (%)", "setting": "PDX model #30, Lung, Day 10", "value": 84.7, "unit": "%"},
      {"measurement": "TGI (%)", "setting": "PDX model #31, Colorectal, Day 14", "value": 58.4, "unit": "%"},
      {"measurement": "TGI (%)", "setting": "PDX model #32, Lung, Day 13", "value": 64.9, "unit": "%"},
      {"measurement": "TGI (%)", "setting": "PDX model #33, Lung, Day 14", "value": 25.0, "unit": "%"},
      {"measurement": "TGI (%)", "setting": "PDX model #34, Lung, Day 13", "value": 89.7, "unit": "%"},
      {"measurement": "TGI (%)", "setting": "PDX model #35, Lung, Day 14", "value": "−0.4", "unit": "%"},
      {"measurement": "Proportion of PDX models showing TGI of 75% or more", "setting": "log2[FPKM+1]: hTROP2 >4.0, SLFN11 >1, 21 models", "value": 57, "unit": "%"},
      {"measurement": "Proportion of PDX models showing TGI of 75% or more", "setting": "log2[FPKM+1]: hTROP2 >4.0, SLFN11 >2, 15 models", "value": 60, "unit": "%"},
      {"measurement": "Proportion of PDX models showing TGI of 75% or more", "setting": "log2[FPKM+1]: hTROP2 >4.0, SLFN11 >3, 9 models", "value": 67, "unit": "%"},
      {"measurement": "Proportion of PDX models showing TGI of 75% or more", "setting": "log2[FPKM+1]: hTROP2 >4.0, SLFN11 All models, 32 models", "value": 44, "unit": "%"},
      {"measurement": "Proportion of PDX models showing TGI of 75% or more", "setting": "log2[FPKM+1]: hTROP2 >5.0, SLFN11 >1, 18 models", "value": 56, "unit": "%"},
      {"measurement": "Proportion of PDX models showing TGI of 75% or more", "setting": "log2[FPKM+1]: hTROP2 >5.0, SLFN11 >2, 13 models", "value": 62, "unit": "%"},
      {"measurement": "Proportion of PDX models showing TGI of 75% or more", "setting": "log2[FPKM+1]: hTROP2 >5.0, SLFN11 >3, 7 models", "value": 71, "unit": "%"},
      {"measurement": "Proportion of PDX models showing TGI of 75% or more", "setting": "log2[FPKM+1]: hTROP2 >5.0, SLFN11 All models, 29 models", "value": 41, "unit": "%"},
      {"measurement": "Proportion of PDX models showing TGI of 75% or more", "setting": "log2[FPKM+1]: hTROP2 >6.0, SLFN11 >1, 17 models", "value": 59, "unit": "%"},
      {"measurement": "Proportion of PDX models showing TGI of 75% or more", "setting": "log2[FPKM+1]: hTROP2 >6.0, SLFN11 >2, 12 models", "value": 67, "unit": "%"},
      {"measurement": "Proportion of PDX models showing TGI of 75% or more", "setting": "log2[FPKM+1]: hTROP2 >6.0, SLFN11 >3, 6 models", "value": 83, "unit": "%"},
      {"measurement": "Proportion of PDX models showing TGI of 75% or more", "setting": "log2[FPKM+1]: hTROP2 >6.0, SLFN11 All models, 25 models", "value": 48, "unit": "%"},
      {"measurement": "Proportion of PDX models showing TGI of 75% or more", "setting": "log2[FPKM+1]: hTROP2 >7.0, SLFN11 >1, 11 models", "value": 64, "unit": "%"}
    ]}
  ]
}
